In patent US7022313B2, “Hydrogel particle formulation” (PowderJect Research Ltd., priority 1999, dated 2006):

Experiment: LDH specific activity after lyophilization (colorimetric endpoint assay)
Assay type: biochemical
Protocol: Lactate dehydrogenase (LDH) was obtained from Sigma Chemicals (L1254; Lot 96H9568). Bio-Gel A15M was obtained from Bio-Rad (Cat. No. 151-1050) as a powder having a MMAD of 20-150 μm. LDH activity was measured using an endpoint, colorimetric assay (Sigma No. 500). All other reagents were obtained from Fisher Scientific and were ACS-grade or better.
The Bio-Gel A15M resin was washed with water to remove preservative and then poured into a disposable 1×10 cm column to a final column volume of approximately 5 mL. The column was equilibrated with 5 mL sodium citrate, pH 6 containing 5% (w/v) mannitol. LDH was dissolved in the same buffer at 2 mg/mL final concentration. A 5 mL sample of this solution was loaded to the column and allowed to fully penetrate.
The resin was emptied from the column and lyophilized. After lyophilization the resin was re-suspended in water and poured back into the column. The column was then eluted with a 5 mL portion of the buffer. […]
The protein concentration of each solution was determined by absorbance at 280 nm using a Hewlett-Packard UV-VIS Spectrophotometer. […] The absorbance of the color formed is inversely proportional to the LDH activity. LDH specific activity was calculated by dividing the […].

Lactate dehydrogenase [LDH]
specific activity, % of the starting material (LDH loaded on agarose beads (Bio-Gel A15M), lyophilized, eluted, preliminary): about 40%
specific activity, % of the starting material (LDH recovered after lyophilization from solution): 98%
